Measurements as given in patent US20220251159A1.
No end group written: not given here. *: point of attachment. Myristoyl = CCCCCCCCCCCCCC(=O)*

Experiments:
Full length p53 = assay: MST; FIG. 3B; conditions: chains peptide; modification not given
[1] = target: two different p53 missense mutations (A161T and R175H) expressed in U266 and OPM2 multiple myeloma cells; assay: cell-based or functional assay

| Binder | Kd (Full length p53) | IC50, cell viability (CellTiter-Glo, 72 h) of multiple myeloma cell lines [1] |
| --- | --- | --- |
| RRHSTPHPD [pCAP250] | 30 µM |  |
| Myristoyl-RRHSTPHPD [pCAP 250 (SEQ ID NO: 1)] |  | 1.5 to 3 µM |
